The results in this text go back to the Human Domainome abundance scans (Beltran et al. 2025).

B1: REST corepressor 3, residues 87 to 134; numbered along this chain, Q9P2K3 (parent)
chain: DEWTVEDKVLFEQAFSFHGKSFHRIQQMLPDKTIASLVKYYYSWKKTR

± gives the uncertainty stated by the source.

The data set covers variants of B1. As to the kind of experiment: abundance fitness (aPCA) (normalised: wild type 0, dead -1); higher = more abundant; growth selection in yeast, the domain comes from the species named. To be noted: Homo sapiens.
As for DEWTVEDGVLFEQAFSFHGKSFHRIQQMLPDKTIASLVKYYYSWKKTR [K8G], the abundance fitness is -0.673 ± 0.12. The value for DEWTVEDTVLFEQAFSFHGKSFHRIQQMLPDKTIASLVKYYYSWKKTR [K8T] was -0.542 ± 0.32; that for DEWTVEDIVLFEQAFSFHGKSFHRIQQMLPDKTIASLVKYYYSWKKTR [K8I] was -0.388 ± 0.5. The same measure for DEWTVEDHVLFEQAFSFHGKSFHRIQQMLPDKTIASLVKYYYSWKKTR [K8H]: -0.594 ± 0.32. The value for DEWTVEDLVLFEQAFSFHGKSFHRIQQMLPDKTIASLVKYYYSWKKTR [K8L] was -0.779 ± 0.38. For DEWTVEDSVLFEQAFSFHGKSFHRIQQMLPDKTIASLVKYYYSWKKTR [K8S], the abundance fitness was -0.822 ± 0.36.

As for DEWTVEDRVLFEQAFSFHGKSFHRIQQMLPDKTIASLVKYYYSWKKTR [K8R], the abundance fitness is -0.434 ± 0.13. With DEWTVEDQVLFEQAFSFHGKSFHRIQQMLPDKTIASLVKYYYSWKKTR [K8Q], the abundance fitness is -0.457 ± 0.38. For DEWTVEDMVLFEQAFSFHGKSFHRIQQMLPDKTIASLVKYYYSWKKTR [K8M], the abundance fitness was -0.035 ± 0.13.

Regarding DEWTVEDVVLFEQAFSFHGKSFHRIQQMLPDKTIASLVKYYYSWKKTR [K8V], the abundance fitness is -0.625 ± 0.21. As to DEWTVEDPVLFEQAFSFHGKSFHRIQQMLPDKTIASLVKYYYSWKKTR [K8P], the abundance fitness is -0.763 ± 0.32. Consider DEWTVQDKVLFEQAFSFHGKSFHRIQQMLPDKTIASLVKYYYSWKKTR [E6Q], for which the abundance fitness is 0.293 ± 0.48. On to DEWTVDDKVLFEQAFSFHGKSFHRIQQMLPDKTIASLVKYYYSWKKTR [E6D], for which the abundance fitness was -0.466 ± 0.16. Turning to DEWTVVDKVLFEQAFSFHGKSFHRIQQMLPDKTIASLVKYYYSWKKTR [E6V], the abundance fitness is -0.777 ± 0.33. For DEWTVADKVLFEQAFSFHGKSFHRIQQMLPDKTIASLVKYYYSWKKTR [E6A], the abundance fitness is -0.388 ± 0.15. The value for DEWTVIDKVLFEQAFSFHGKSFHRIQQMLPDKTIASLVKYYYSWKKTR [E6I] was -0.58 ± 0.46.

On to DEWTVRDKVLFEQAFSFHGKSFHRIQQMLPDKTIASLVKYYYSWKKTR [E6R], for which the abundance fitness is -0.273 ± 0.11. The same measure for DEWTVFDKVLFEQAFSFHGKSFHRIQQMLPDKTIASLVKYYYSWKKTR [E6F]: -0.542 ± 0.43; for DEWTVLDKVLFEQAFSFHGKSFHRIQQMLPDKTIASLVKYYYSWKKTR [E6L]: -0.614 ± 0.2. For DEWTVTDKVLFEQAFSFHGKSFHRIQQMLPDKTIASLVKYYYSWKKTR [E6T], the abundance fitness is -0.323 ± 0.2. DEWTVEDKDLFEQAFSFHGKSFHRIQQMLPDKTIASLVKYYYSWKKTR [V9D]: the abundance fitness is -0.258 ± 0.2.

For DEWTVEDKELFEQAFSFHGKSFHRIQQMLPDKTIASLVKYYYSWKKTR [V9E], the abundance fitness was -0.302 ± 0.14.

For the variant DEWTVEDKKLFEQAFSFHGKSFHRIQQMLPDKTIASLVKYYYSWKKTR [V9K], the abundance fitness is -0.201 ± 0.18. The same measure for DEWTVEDKHLFEQAFSFHGKSFHRIQQMLPDKTIASLVKYYYSWKKTR [V9H]: -0.237 ± 0.2; for DEWTVEDKLLFEQAFSFHGKSFHRIQQMLPDKTIASLVKYYYSWKKTR [V9L]: -0.28 ± 0.19; for DEWTVEDKALFEQAFSFHGKSFHRIQQMLPDKTIASLVKYYYSWKKTR [V9A]: -0.216 ± 0.14.

In the case of DEWTVEDKILFEQAFSFHGKSFHRIQQMLPDKTIASLVKYYYSWKKTR [V9I], the abundance fitness came to 0.032 ± 0.27. The value for DEWTVEDKGLFEQAFSFHGKSFHRIQQMLPDKTIASLVKYYYSWKKTR [V9G] was -0.17 ± 0.13. The same measure for DEWTVEDKFLFEQAFSFHGKSFHRIQQMLPDKTIASLVKYYYSWKKTR [V9F]: -0.531 ± 0.38; for DEWTSEDKVLFEQAFSFHGKSFHRIQQMLPDKTIASLVKYYYSWKKTR [V5S]: -0.3 ± 0.13. Turning to DEWTIEDKVLFEQAFSFHGKSFHRIQQMLPDKTIASLVKYYYSWKKTR [V5I], the abundance fitness was -0.316 ± 0.18.

As to DEWTFEDKVLFEQAFSFHGKSFHRIQQMLPDKTIASLVKYYYSWKKTR [V5F], the abundance fitness was -0.222 ± 0.32. The value for DEWTQEDKVLFEQAFSFHGKSFHRIQQMLPDKTIASLVKYYYSWKKTR [V5Q] was -0.154 ± 0.15; that for DEWTLEDKVLFEQAFSFHGKSFHRIQQMLPDKTIASLVKYYYSWKKTR [V5L] was -0.458 ± 0.18. The same measure for DEWTREDKVLFEQAFSFHGKSFHRIQQMLPDKTIASLVKYYYSWKKTR [V5R]: -0.163 ± 0.11. The value for DEWTYEDKVLFEQAFSFHGKSFHRIQQMLPDKTIASLVKYYYSWKKTR [V5Y] was 0.218 ± 0.12. In the case of DEWTMEDKVLFEQAFSFHGKSFHRIQQMLPDKTIASLVKYYYSWKKTR [V5M], the abundance fitness was -0.612 ± 0.31. Consider DEWTGEDKVLFEQAFSFHGKSFHRIQQMLPDKTIASLVKYYYSWKKTR [V5G], for which the abundance fitness is -0.658 ± 0.14.

As for DEWTKEDKVLFEQAFSFHGKSFHRIQQMLPDKTIASLVKYYYSWKKTR [V5K], the abundance fitness stood at 0.208 ± 0.13. The same measure for DEWTTEDKVLFEQAFSFHGKSFHRIQQMLPDKTIASLVKYYYSWKKTR [V5T]: -0.436 ± 0.27; for DEWTEEDKVLFEQAFSFHGKSFHRIQQMLPDKTIASLVKYYYSWKKTR [V5E]: 0.388 ± 0.11; for DEWTPEDKVLFEQAFSFHGKSFHRIQQMLPDKTIASLVKYYYSWKKTR [V5P]: -0.393 ± 0.23. The same measure for DEWTVENKVLFEQAFSFHGKSFHRIQQMLPDKTIASLVKYYYSWKKTR [D7N]: -0.821 ± 0.23; for DEWTVEAKVLFEQAFSFHGKSFHRIQQMLPDKTIASLVKYYYSWKKTR [D7A]: -0.811 ± 0.34.

In the case of DEWTVELKVLFEQAFSFHGKSFHRIQQMLPDKTIASLVKYYYSWKKTR [D7L], the abundance fitness is -0.796 ± 0.21. In the case of DEWTVEWKVLFEQAFSFHGKSFHRIQQMLPDKTIASLVKYYYSWKKTR [D7W], the abundance fitness is -0.762 ± 0.36. The value for DEWTVEYKVLFEQAFSFHGKSFHRIQQMLPDKTIASLVKYYYSWKKTR [D7Y] was -0.686 ± 0.45; that for DEWTVEPKVLFEQAFSFHGKSFHRIQQMLPDKTIASLVKYYYSWKKTR [D7P] was -0.411 ± 0.4; that for DEWTVEVKVLFEQAFSFHGKSFHRIQQMLPDKTIASLVKYYYSWKKTR [D7V] was -0.687 ± 0.21.

In the case of DEWTVEQKVLFEQAFSFHGKSFHRIQQMLPDKTIASLVKYYYSWKKTR [D7Q], the abundance fitness is -0.156 ± 0.22.

For the variant DEWTVEGKVLFEQAFSFHGKSFHRIQQMLPDKTIASLVKYYYSWKKTR [D7G], the abundance fitness was -0.571 ± 0.15. The same measure for DEWTVETKVLFEQAFSFHGKSFHRIQQMLPDKTIASLVKYYYSWKKTR [D7T]: -0.708 ± 0.43. Consider DEWTVEEKVLFEQAFSFHGKSFHRIQQMLPDKTIASLVKYYYSWKKTR [D7E], for which the abundance fitness was -0.617 ± 0.34. The same measure for DEWTVESKVLFEQAFSFHGKSFHRIQQMLPDKTIASLVKYYYSWKKTR [D7S]: -0.611 ± 0.17.
